Paper PMC7586219

Tests used:
[1] = molecular target: Orbicella faveolata caspase-3b (Orbicella faveolata); experiment: SEC; Superdex75 Increase 10/300GL; protein 1-5 mg/ml, 200 ul loaded; 30 mM potassium phosphate, pH 7.5, 1 mM DTT; column calibrated with the LMW calibration kit; protomer to dimer
[2] = molecular target: Porites astreoides caspase-3 (Porites astreoides); experiment: as above

stoichiometry N [1] | stoichiometry N [2] | Substance
2 | – | Orbicella faveolata caspase-3b (enzyme)
– | 2 | Porites astreoides caspase-3 (enzyme)
